Target: taxol-stabilized microtubules (bovine brain tubulin) (bovine) (UniProt Q6B856)
Assay: co-sedimentation

B1: recombinant LC1 (natural protein)
chain: MAKATTIKDAIRIFEERKSVVATEAEKVELHGMIPPIEKMDATLSTLKACKHLALSTNNIEKISSLSGMENLRILSLGRNLIKKIENLDAVADTLEELWISYNQIASLSGIEKLVNLRVLYMSNNKITNWGEIDKLAALDKLEDLLLAGNPLYNDYKENNATSEYRIEVVKRLPNLKKLDGMPVDVDEREQANVARGG
  stoichiometry N (LC1 per tubulin monomer): 1.06
